# Measurements published in article PMC2783235.
# What was measured:
# [1] = molecular target: I67C (single-Cys mutant of FT-HT-Xa) (S. cerevisiae) (UniProt D6VTK4); test: cross-linking
# [2] = molecular target: I67C (single-Cys mutant of FT-HT-Xa) (S. cerevisiae) (UniProt D6VTK4); test: SDS-PAGE and western blot of membranes
# [3] = molecular target: I67C (single-Cys mutant of FT-HT-Xa) (S. cerevisiae) (UniProt D6VTK4); test: cross-linking; remark: listed apart in the source
# [4] = molecular target: I67C (single-Cys mutant of FT-HT-Xa) (S. cerevisiae) (UniProt D6VTK4); test: cross-linking; remark: listed apart in the source
# [5] = molecular target: L66C (single-Cys mutant of FT-HT-Xa) (S. cerevisiae) (UniProt D6VTK4); test: cross-linking
# [6] = molecular target: L66C (single-Cys mutant of FT-HT-Xa) (S. cerevisiae) (UniProt D6VTK4); test: SDS-PAGE and western blot of membranes
# [7] = molecular target: L66C (single-Cys mutant of FT-HT-Xa) (S. cerevisiae) (UniProt D6VTK4); test: cross-linking; remark: listed apart in the source
# [8] = molecular target: L66C (single-Cys mutant of FT-HT-Xa) (S. cerevisiae) (UniProt D6VTK4); test: cross-linking; remark: listed apart in the source
# [9] = molecular target: M69C (single-Cys mutant of FT-HT-Xa) (S. cerevisiae) (UniProt D6VTK4); test: cross-linking
# [10] = molecular target: M69C (single-Cys mutant of FT-HT-Xa) (S. cerevisiae) (UniProt D6VTK4); test: SDS-PAGE and western blot of membranes
# [11] = molecular target: M69C (single-Cys mutant of FT-HT-Xa) (S. cerevisiae) (UniProt D6VTK4); test: cross-linking; remark: listed apart in the source
# [12] = molecular target: M69C (single-Cys mutant of FT-HT-Xa) (S. cerevisiae) (UniProt D6VTK4); test: cross-linking; remark: listed apart in the source
# [13] = molecular target: T278C (single-Cys mutant of FT-HT-Xa) (S. cerevisiae) (UniProt D6VTK4); test: cross-linking
# [14] = molecular target: T278C (single-Cys mutant of FT-HT-Xa) (S. cerevisiae) (UniProt D6VTK4); test: SDS-PAGE and western blot of membranes
# [15] = molecular target: T278C (single-Cys mutant of FT-HT-Xa) (S. cerevisiae) (UniProt D6VTK4); test: cross-linking; remark: listed apart in the source
# [16] = molecular target: T278C (single-Cys mutant of FT-HT-Xa) (S. cerevisiae) (UniProt D6VTK4); test: cross-linking; remark: listed apart in the source
# [17] = molecular target: T279C (single-Cys mutant of FT-HT-Xa) (S. cerevisiae) (UniProt D6VTK4); test: cross-linking
# [18] = molecular target: T279C (single-Cys mutant of FT-HT-Xa) (S. cerevisiae) (UniProt D6VTK4); test: SDS-PAGE and western blot of membranes
# [19] = molecular target: T279C (single-Cys mutant of FT-HT-Xa) (S. cerevisiae) (UniProt D6VTK4); test: cross-linking; remark: listed apart in the source
# [20] = molecular target: T279C (single-Cys mutant of FT-HT-Xa) (S. cerevisiae) (UniProt D6VTK4); test: cross-linking; remark: listed apart in the source
# [21] = molecular target: I67C (single-Cys mutant of FT-HT-Xa) (S. cerevisiae) (UniProt D6VTK4); test: radioligand binding
# [22] = molecular target: L64C (single-Cys mutant of FT-HT-Xa) (S. cerevisiae) (UniProt D6VTK4); test: radioligand binding
# [23] = molecular target: L287C (single-Cys mutant of FT-HT-Xa) (S. cerevisiae) (UniProt D6VTK4); test: radioligand binding
# [24] = molecular target: L283C (single-Cys mutant of FT-HT-Xa) (S. cerevisiae) (UniProt D6VTK4); test: radioligand binding
# [25] = molecular target: S292C (single-Cys mutant of FT-HT-Xa) (S. cerevisiae) (UniProt D6VTK4); test: radioligand binding
# [26] = molecular target: L289C (single-Cys mutant of FT-HT-Xa) (S. cerevisiae) (UniProt D6VTK4); test: radioligand binding
# [27] = molecular target: T65C (single-Cys mutant of FT-HT-Xa) (S. cerevisiae) (UniProt D6VTK4); test: radioligand binding
# [28] = molecular target: S293C (single-Cys mutant of FT-HT-Xa) (S. cerevisiae) (UniProt D6VTK4); test: radioligand binding
# [29] = molecular target: A296C (single-Cys mutant of FT-HT-Xa) (S. cerevisiae) (UniProt D6VTK4); test: radioligand binding
# [30] = molecular target: L66C (single-Cys mutant of FT-HT-Xa) (S. cerevisiae) (UniProt D6VTK4); test: radioligand binding
# [31] = molecular target: L284C (single-Cys mutant of FT-HT-Xa) (S. cerevisiae) (UniProt D6VTK4); test: radioligand binding
# [32] = molecular target: S288C (single-Cys mutant of FT-HT-Xa) (S. cerevisiae) (UniProt D6VTK4); test: radioligand binding
# [33] = molecular target: W295C (single-Cys mutant of FT-HT-Xa) (S. cerevisiae) (UniProt D6VTK4); test: radioligand binding
# [34] = molecular target: V286C (single-Cys mutant of FT-HT-Xa) (S. cerevisiae) (UniProt D6VTK4); test: radioligand binding
# [35] = molecular target: V68C (single-Cys mutant of FT-HT-Xa) (S. cerevisiae) (UniProt D6VTK4); test: radioligand binding
# [36] = molecular target: L291C (single-Cys mutant of FT-HT-Xa) (S. cerevisiae) (UniProt D6VTK4); test: radioligand binding
# [37] = molecular target: V68C (single-Cys mutant of FT-HT-Xa) (S. cerevisiae) (UniProt D6VTK4); test: cross-linking
# [38] = molecular target: V68C (single-Cys mutant of FT-HT-Xa) (S. cerevisiae) (UniProt D6VTK4); test: SDS-PAGE and western blot of membranes
# [39] = molecular target: V68C (single-Cys mutant of FT-HT-Xa) (S. cerevisiae) (UniProt D6VTK4); test: cross-linking; remark: listed apart in the source
# [40] = molecular target: V68C (single-Cys mutant of FT-HT-Xa) (S. cerevisiae) (UniProt D6VTK4); test: cross-linking; remark: listed apart in the source
substance,measurement,setting,value
I67C (single-Cys mutant of FT-HT-Xa) (from UniProt D6VTK4 1-431) (receptor),percent dimer,[1],17%
same,percent dimer,[2],19.3%
same,percent dimer,[3],18%
same,percent dimer,[4],17.4%
L66C (single-Cys mutant of FT-HT-Xa) (from UniProt D6VTK4 1-431) (receptor),percent dimer,[5],11.9%
same,percent dimer,[6],12.3%
same,percent dimer,[7],11.9%
same,percent dimer,[8],13.2%
M69C (single-Cys mutant of FT-HT-Xa) (from UniProt D6VTK4 1-431) (receptor),percent dimer,[9],14.2%
same,percent dimer,[10],17.7%
same,percent dimer,[11],28.9%
same,percent dimer,[12],17%
T278C (single-Cys mutant of FT-HT-Xa) (from UniProt D6VTK4 1-431) (receptor),percent dimer,[13],65.8%
same,percent dimer,[14],15.1%
same,percent dimer,[15],12.4%
same,percent dimer,[16],12.5%
T279C (single-Cys mutant of FT-HT-Xa) (from UniProt D6VTK4 1-431) (receptor),percent dimer,[17],10.1%
same,percent dimer,[18],17.3%
same,percent dimer,[19],10.9%
same,percent dimer,[20],15.8%
Tritiated α-factor ([3H]α-factor) (peptide),Kd relative to FT-HT-Xa (relative to FT-HT-Xa),[21],2.2
same,Kd relative to FT-HT-Xa (relative to FT-HT-Xa),[22],2.5
same,Kd relative to FT-HT-Xa (relative to FT-HT-Xa),[23],1.1
same,Kd relative to FT-HT-Xa (relative to FT-HT-Xa),[24],4.7
same,Kd relative to FT-HT-Xa (relative to FT-HT-Xa),[25],0.2
same,Kd relative to FT-HT-Xa (relative to FT-HT-Xa),[26],2.1
same,Kd relative to FT-HT-Xa (relative to FT-HT-Xa),[27],1.5
same,Kd relative to FT-HT-Xa (relative to FT-HT-Xa),[28],2.5
same,Kd relative to FT-HT-Xa (relative to FT-HT-Xa),[29],0.4
same,Kd relative to FT-HT-Xa (relative to FT-HT-Xa),[30],0.5
same,Kd relative to FT-HT-Xa (relative to FT-HT-Xa),[31],1.1
same,Kd relative to FT-HT-Xa (relative to FT-HT-Xa),[32],4.1
same,Kd relative to FT-HT-Xa (relative to FT-HT-Xa),[33],1.3
same,Kd relative to FT-HT-Xa (relative to FT-HT-Xa),[34],1.9
same,Kd relative to FT-HT-Xa (relative to FT-HT-Xa),[35],1.1
same,Kd relative to FT-HT-Xa (relative to FT-HT-Xa),[36],1.7
V68C (single-Cys mutant of FT-HT-Xa) (from UniProt D6VTK4 1-431) (receptor),percent dimer,[37],99.2%
same,percent dimer,[38],28.5%
same,percent dimer,[39],98.8%
same,percent dimer,[40],98.3%
